These results are taken from the supplement of paper PMC5998384.

Series [1] relates to HeLa Kyoto. The series can be described thus: solubility in G1/S (NP-40 vs SDS abundance) (log2 ratio); higher = more soluble. The settings on record: cell cycle stage: G1/S.
In series [2] the test system is HeLa Kyoto. The series can be described thus: solubility change mitosis vs G1/S (difference of NP-40 vs SDS log2 ratios) (log2 ratio difference); higher = more soluble in mitosis.
Series [3] has as its system HeLa Kyoto. The series can be described thus: thermal stability score vs G1/S (z-score of summed log2 fold changes over temperatures); higher = more thermally stable than in G1/S.
Where [4] appears, read: cell cycle stage: early G1 (4.5 h after nocodazole release).
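Throughout, for solubility change mitosis vs G1/S (difference of NP-40 vs SDS log2 ratios): synchronized HeLa Kyoto cells (double thymidine block for G1/S, nocodazole release for mitosis), protein amounts in NP-40 versus SDS lysates quantified by mass spectrometry, three biological replicates.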
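Throughout, for solubility in G1/S (NP-40 vs SDS abundance): HeLa Kyoto cells arrested at G1/S by double thymidine block, proteins quantified by TMT10plex mass spectrometry in mild NP-40 versus SDS extracts, three biological replicates.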
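Throughout, for thermal stability score vs G1/S (z-score of summed log2 fold changes over temperatures): synchronized HeLa Kyoto cells, proteins quantified by TMT10plex mass spectrometry, three biological replicates, mitosis taken 0.5 h after nocodazole release, G1/S directly after double thymidine block.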

With “MEASLGIQMDEPMAFSPQRDRFQAEGSLKKNEQNFKLAGVKKDIEKLYEAVPQLSNVFKIEDKIGEGTFSSVYLATAQLQVGPEEKIALKHLIPTSHPIRIAAELQCLTVAGGQDNVMGVKYCFRKNDHVVIAMPYLEHESFLDILNSLSFQEVREYMLNLFKALKRIHQFGIVHRDVKPSNFLYNRRLKKYALVDFGLAQGTHDTKIELLKFVQSEAQQERCSQNKSHIITGNKIPLSGPVPKELDQQSTTKASVKRPYTNAQIQIKQGKDGKEGSVGLSVQRSVFGERNFNIHSSISHESPAVKLMKQSKTVDVLSRKLATKKKAISTKVMNSAVMRKTASSCPASLTCDCYATDKVCSICLSRRQQVAPRAGTPGFRAPEVLTKCPNQTTAIDMWSAGVIFLSLLSGRYPFYKASDDLTALAQIMTIRGSRETIQAAKTFGKSILCSKEVPAQDLRKLCERLRGMDSSTPKLTSDIQGHASHQPAISEKTDHKASCLVQTPPGQYSGNSFKKGDSNSCEHCFDEYNTNLEGWNEVPDEAYDLLDKLLDLNPASRITAEEALLHPFFKDMSL [CDC7]”, in the series with HeLa Kyoto [1], the “solubility in G1/S (log2)” value was -0.0102. In the series with HeLa Kyoto [2], the “solubility change mitosis (log2)” value is 0.0299. The thermal stability score came to 2.43 in the series with HeLa Kyoto [3] (setting [4]) and 2.74 with HeLa Kyoto [3] (cell cycle stage: mitosis).

For MED13, in the series on HeLa Kyoto [1], the “solubility in G1/S (log2)” value was -0.213. Moreover, in the series with HeLa Kyoto [2], the “solubility change mitosis (log2)” value is -0.112. Besides, the figures for the thermal stability score in the series on HeLa Kyoto [3] (setting [4]) and in the series with HeLa Kyoto [3] (cell cycle stage: mitosis) were -0.573 and -0.435, respectively.

In the case of “MASPRASRWPPPLLLLLLPLLLLPPAAPGTRDPPPSPARRALSLAPLAGAGLELQLERRPEREPPPTPPRERRGPATPGPSYRAPEPGAATQRGPSGRAPRGGSADAAWKHWPESNTEAHVENITFYQNQEDFSTVSSKEGVMVQTSGKSHAASDAPENLTLLAETADARGRSGSSSRTNFTILPVGYSLEIATALTSQSGNLASESLHLPSSSSEFDERIAAFQTKSGTASEMGTERAMGLSEEWTVHSQEATTSAWSPSFLPALEMGELTTPSRKRNSSGPDLSWLHFYRTAASSPLLDLSSSSESTEKLNNSTGLQSSSVSQTKTMHVATVFTDGGPRTLRSLTVSLGPVSKTEGFPKDSRIATTSSSVLLSPSAVESRRNSRVTGNPGDEEFIEPSTENEFGLTSLRWQNDSPTFGEHQLASSSEVQNGSPMSQTETVSRSVAPMRGGEITAHWLLTNSTTSADVTGSSASYPEGVNASVLTQFSDSTVQSGGSHTALGDRSYSESSSTSSSESLNSSAPRGERSIAGISYGQVRGTAIEQRTSSDHTDHTYLSSTFTKGERALLSITDNSSSSDIVESSTSYIKISNSSHSEYSSFFHAQTERSNISSYDGEYAQPSTESPVLHTSNLPSYTPTINMPNTSVVLDTDAEFVSDSSSSSSSSSSSSSSGPPLPLPSVSQSHHLFSSILPSTRASVHLLKSTSDASTPWSSSPSPLPVSLTTSTSAPLSVSQTTLPQSSSTPVLPRARETPVTSFQTSTMTSFMTMLHSSQTADLKSQSTPHQEKVITESKSPSLVSLPTESTKAVTTNSPLPPSLTESSTEQTLPATSTNLAQMSPTFTTTILKTSQPLMTTPGTLSSTASLVTGPIAVQTTAGKQLSLTHPEILVPQISTEGGISTERNRVIVDATTGLIPLTSVPTSAKEMTTKLGVTAEYSPASRSLGTSPSPQTTVVSTAEDLAPKSATFAVQSSTQSPTTVSSSASVNSCAVNPCLHNGECVADNTSRGYHCRCPPSWQGDDCSVDVNECLSNPCPSTAMCNNTQGSFICKCPVGYQLEKGICNLVRTFVTEFKLKRTFLNTTVEKHSDLQEVENEITKTLNMCFSALPSYIRSTVHASRESNAVVISLQTTFSLASNVTLFDLADRMQKCVNSCKSSAEVCQLLGSQRRIFRAGSLCKRKSPECDKDTSICTDLDGVALCQCKSGYFQFNKMDHSCRACEDGYRLENETCMSCPFGLGGLNCGNPYQLITVVIAAAGGGLLLILGIALIVTCCRKNKNDISKLIFKSGDFQMSPYAEYPKNPRSQEWGREAIEMHENGSTKNLLQMTDVYYSPTSVRNPELERNGLYPAYTGLPGSRHSCIFPGQYNPSFISDESRRRDYF [HEG1]”, the “solubility in G1/S (log2)” value in the series on HeLa Kyoto [1] was -0.231. The “solubility change mitosis (log2)” value in the series on HeLa Kyoto [2] is -0.0254. The results for the thermal stability score in the series on HeLa Kyoto [3] (setting [4]) and with HeLa Kyoto [3] (cell cycle stage: mitosis) were -0.763 and -1.15, respectively.

For the substance “MQRRRRPPPPTSRLPEGCGGGGGGSEEVEVQFSAGRWGSAAAVSAAAAAATRSTEEEEERLEREHFWKIINAFRYYGTSMHERVNRTERQFRSLPANQQKLLPQFLLHLDKIRKCIDHNQEILLTIVNDCIHMFENKEYGEDGNGKIMPASTFDMDKLKSTLKQFVRDWSETGKAERDACYQPIIKEILKNFPKERWDPSKVNILVPGAGLGRLAWEIAMLGYACQGNEWSFFMLFSSNFVLNRCSEINKYKLYPWIHQFSNNRRSADQIRPIFFPDVDPHSLPPGSNFSMTAGDFQEIYSECNTWDCIATCFFIDTAHNVIDYIDTIWKILKPGGIWINLGPLLYHFENLANELSIELSYEDIKNVVLQYGFKVEVEKESVLSTYTVNDLSMMKYYYECVLFVVRKPQ [CARNMT1]”, in the series with HeLa Kyoto [1], the “solubility in G1/S (log2)” value is -0.164. In the series with HeLa Kyoto [2], the “solubility change mitosis (log2)” value was -0.117. In addition, the thermal stability score with HeLa Kyoto [3] (setting [4]) is 1.2; in the series with HeLa Kyoto [3] (cell cycle stage: mitosis), 1.42.

With “MAEDWLDCPALGPGWKRREVFRKSGATCGRSDTYYQSPTGDRIRSKVELTRYLGPACDLTLFDFKQGILCYPAPKAHPVAVASKKRKKPSRPAKTRKRQVGPQSGEVRKEAPRDETKADTDTAPASFPAPGCCENCGISFSGDGTQRQRLKTLCKDCRAQRIAFNREQRMFKRVGCGECAACQVTEDCGACSTCLLQLPHDVASGLFCKCERRRCLRIVERSRGCGVCRGCQTQEDCGHCPICLRPPRPGLRRQWKCVQRRCLRGKHARRKGGCDSKMAARRRPGAQPLPPPPPSQSPEPTEPHPRALAPSPPAEFIYYCVDEDELQPYTNRRQNRKCGACAACLRRMDCGRCDFCCDKPKFGGSNQKRQKCRWRQCLQFAMKRLLPSVWSESEDGAGSPPPYRRRKRPSSARRHHLGPTLKPTLATRTAQPDHTQAPTKQEAGGGFVLPPPGTDLVFLREGASSPVQVPGPVAASTEALLQEAQCSGLSWVVALPQVKQEKADTQDEWTPGTAVLTSPVLVPGCPSKAVDPGLPSVKQEPPDPEEDKEENKDDSASKLAPEEEAGGAGTPVITEIFSLGGTRFRDTAVWLPRSKDLKKPGARKQ [MBD1]”, in the series on HeLa Kyoto [1], the “solubility in G1/S (log2)” value is -0.475. Further, the “solubility change mitosis (log2)” value in the series with HeLa Kyoto [2] was found to be 0.37. Moreover, the thermal stability score was -0.407 in the series with HeLa Kyoto [3] (setting [4]) and -0.0664 in the series with HeLa Kyoto [3] (cell cycle stage: mitosis).

With “MLPRRLLAAWLAGTRGGGLLALLANQCRFVTGLRVRRAQQIAQLYGRLYSESSRRVLLGRLWRRLHGRPGHASALMAALAGVFVWDEERIQEEELQRSINEMKRLEEMSNMFQSSGVQHHPPEPKAQTEGNEDSEGKEQRWEMVMDKKHFKLWRRPITGTHLYQYRVFGTYTDVTPRQFFNVQLDTEYRKKWDALVIKLEVIERDVVSGSEVLHWVTHFPYPMYSRDYVYVRRYSVDQENNMMVLVSRAVEHPSVPESPEFVRVRSYESQMVIRPHKSFDENGFDYLLTYSDNPQTVFPRYCVSWMVSSGMPDFLEKLHMATLKAKNMEIKVKDYISAKPLEMSSEAKATSQSSERKNEGSCGPARIEYA [STARD7]”, in the series on HeLa Kyoto [1], the “solubility in G1/S (log2)” value was determined as 0.128. Besides, the “solubility change mitosis (log2)” value in the series with HeLa Kyoto [2] is -0.155. Moreover, the thermal stability score is -1.31 in the series with HeLa Kyoto [3] (setting [4]) and -0.89 with HeLa Kyoto [3] (cell cycle stage: mitosis).

EML1: in the series on HeLa Kyoto [1], the “solubility in G1/S (log2)” value is -0.0717. For the same substance, in the series on HeLa Kyoto [2], the “solubility change mitosis (log2)” value is -0.126. The figures for the thermal stability score in the series on HeLa Kyoto [3] (setting [4]) and in the series with HeLa Kyoto [3] (cell cycle stage: mitosis) were 0.361 and 0.0361, respectively.

“MLQNPQEKSQAYPRRRRPGCYAYRQNPEAIAAAAMYTFLPDNFSPAKPKPSKDLKPLLGSAVLGLLLVLAAVVAWCYYSVSLRKAERLRAELLDLKAGGFSIRNQKGEQVFRLAFRSGALDLDSCSRDGALLGCSLTADGLPLHFFIQTVRPKDTVMCYRVRWEEAAPGRAVEHAMFLGDAAAHWYGGAEMRTQHWPIRLDGQQEPQPFVTSDVYSSDAAFGGILERYWLSSRAAAIKVNDSVPFHLGWNSTERSLRLQARYHDTPYKPPAGRAAAPELSYRVCVGSDVTSIHKYMVRRYFNKPSRVPAPEAFRDPIWSTWALYGRAVDQDKVLRFAQQIRLHHFNSSHLEIDDMYTPAYGDFDFDEVKFPNASDMFRRLRDAGFRVTLWVHPFVNYNSSRFGEGVERELFVREPTGRLPALVRWWNGIGAVLDFTHPKARDWFQGHLRRLRSRYSVASFKFDAGEVSYLPRDFSTYRPLPDPSVWSRRYTEMALPFFSLAEVRVGYQSQNISCFFRLVDRDSVWGYDLGLRSLIPAVLTVSMLGYPFILPDMVGGNAVPQRTAGGDVPERELYIRWLEVAAFMPAMQFSIPPWRYDAEVVAIAQKFAALRASLVAPLLLELAGEVTDTGDPIVRPLWWIAPGDETAHRIDSQFLIGDTLLVAPVLEPGKQERDVYLPAGKWRSYKGELFDKTPVLLTDYPVDLDEIAYFTWAS [KIAA1161]”: the “solubility in G1/S (log2)” value in the series on HeLa Kyoto [1] was found to be 0.099. The “solubility change mitosis (log2)” value in the series with HeLa Kyoto [2] was -0.254. Further, the thermal stability score in the series with HeLa Kyoto [3] (setting [4]) was -4.62; with HeLa Kyoto [3] (cell cycle stage: mitosis), -3.21.

Regarding “MELKVWVDGVQRIVCGVTEVTTCQEVVIALAQAIGRTGRYTLIEKWRDTERHLAPHENPIISLNKWGQYASDVQLILRRTGPSLSERPTSDSVARIPERTLYRQSLPPLAKLRPQIDKSIKRREPKRKSLTFTGGAKGLMDIFGKGKETEFKQKVLNNCKTTADELKKLIRLQTEKLQSIEKQLESNEIEIRFWEQKYNSNLEEEIVRLEQKIKRNDVEIEEEEFWENELQIEQENEKQLKDQLQEIRQKITECENKLKDYLAQIRTMESGLEAEKLQREVQEAQVNEEEVKGKIGKVKGEIDIQGQQSLRLENGIKAVERSLGQATKRLQDKEQELEQLTKELRQVNLQQFIQQTGTKVTVLPAEPIEIEASHADIEREAPFQSGSLKRPGSSRQLPSNLRILQNPISSGFNPEGIYV [RASSF8]”, in the series on HeLa Kyoto [1], the “solubility in G1/S (log2)” value was determined as 0.445. In the series with HeLa Kyoto [2], the “solubility change mitosis (log2)” value stood at 0.00342. Moreover, the results for the thermal stability score in the series with HeLa Kyoto [3] (setting [4]) and in the series on HeLa Kyoto [3] (cell cycle stage: mitosis) were 0.245 and -0.268, respectively.
